This assay has as its target HIV-1 NL4-3 Env on infected cells (HIV-1 group M subtype B, NL4-3 (pNL4-3 …, strain)).

B1: c5338 (antibody, V domains shown)
VH: HVRLEQWGPGLLKPSETLSLSCVVHGESFDPYSWTWIRQSPKMGPQWLGEIRPFGETVYNPSLSGRLSLSRDNSKRLISLRLTSVSAADSAVYFCARGPVIYEVPYFWYRGLNVWGPGTTVVVST
VL: DVVVTQSPLSVSVTPGESATILCKSSHSLRHDNGMHYLDWYLQKPGQSPQLLIYLSSNRASGVPDRFIGSGSGTDFTLKISRVEAEDVGMYFCMQGRQDPRIFGRGTRLEIK
Regarding B1, the binding result is reported as “binds”.

B2: c6486 (antibody, V domains shown)
VH: QPQMIQSGIEVKQPGAAVKVRCKPSGYWFIACGISWVRQAPGRGLEWLGWVYPYNGKVNHAQKFRGRVTLTADRSTETAYMELKSLTSDDTAIYYCARDSEQYDAAMPNYFTQYGMDVWGQGTTVIVSS
VL: EIVLTQSPGTLSLSPGETAALSCRSSQAFTDKGLAWYKQRPGQPPSLFVYGVSKRAAGVPDRVTGSGSGTEYTLTIGRLEPEDSGLYFCQQYHDPARTFGQGTKLEIK
In the case of B2, the binding result is on record as “binds”.

B3: c22674 (antibody, V domains shown)
VH: QVQLVQSGPEVKKPGTSVKVSCKASGYTFSNYAICWVRQAPGQGLEWVGATSAYNDETSYAQKFQGRVTVTRDSSTSTAYLELRSLRSEDSAVYYCARGGYYESSGSDASDYYAMDVWGQGTTVTVSS
VL: SYELTQPPSVSVSLGQMARITCSGDALSKKYVYWYQQKPGQVPVLVMYQDTERPSGIPERFSGSTSGTIVTLIIGGVQAEDEADYFCLSADDSGTYVVFGGGTKLTVL
Take B3: the binding result is “binds”.

B4: c9603 (antibody, V domains shown)
VH: EVHLLQSAAEVKKPGSTVKVSCKVSGYTFTDYFLHWIQQTPERGLLWMGFVDPDSGVTVYAENFQGRITMTADTSSDTVYLEISSLTSEDAAVYYCATGSHSYPDTDGNPVYVMAFQYWGQGTLVSVSS
VL: DIVMTQSPDSLGVSLGETATVKCKSSQSILYSSDNKNYLAWYQQKPGQPPKLLIYWASTRESGVPDRFSGSGSETDFTLTINNVQAEDVAVYYCQQYSESPPTFGGGTKVDFK
Take B4: the binding result is listed as “binds”.

B5: c7565 (antibody, V domains shown)
VH: QVRLEERGPGLVKPSETLSLVCGVSGYTMSGLWSTTYDWNWIRQSAGGRPEWIGRIYVGGPAQYNPAFKDRVAFSIDLSKNELSLTLTSVTAADSATYFCARGGDTFHPRYWYTMNIWGSGTKVIVSS
VL: DIQLTQSPSTVSASVGDRITMSCRANKSLDVWVAWFRRRPGKAPEHLIYRRDYVWGGLPSRFSGSGSGTEFTLTISSLQAGDFGTYYCHQYKDQPWTFGQGTRVDLK
As for B5, the binding result was “binds”.

B6: c4302 (antibody, V domains shown)
VH: QVLLEQSGGEMKKPGASLKVSCQASGYRFTNYGMSWVRQARGQGLEWMGWISAYNGKTIYAQRFQGRVTLTTDTSTRTAYLELRSLTSDDTAVYFCTRSQTYYFDSSDFYDGKYFDYWGQGTLVTVSS
VL: AIQLTQSPSSLSASVGDRVTLTCRASQGISNALAWYQQKPGESPKLLIHAASSLESGVPSRFSGSGSGTDFTLTISGLQAEDFATYYCQQFNSFPLTFGPGTRLEIK
B6: the binding result is “binds”.

B7: c5296 (antibody, V domains shown)
VH: QVHLQESAPTLVKTSETLSLTCTVSGGQFYPYFYSWIRQSPGGKLQWIGRKYSTTGSMRTNPSLHTRVGMPLDHSRSQIGLTLSSITAADTGIYYCVRDIMRDFDSVDGSGGVYGGVDVWGRGTTVTVSS
VL: QFLLTQPHSVSGSPGKTITISCTRSDGTFARNSVRWYLQRPGEGPTTVFFDGNRRASGIPDRFSASIAVSSASASLTISGLTPEDEADYYCESSDGGHHVVFGGGTKVTVL
In the case of B7, the binding result is recorded as “binds”.

B8: c11405 (antibody, V domains shown)
VH: EARLVESGGGRVQPGGSLRLSCEASGFRFSSYSFTWVRQSPGKGLEWLAKISASPFGRSQVNYAHSVEGRFTISRDNDRNSLRLQMNDLRGADTGVYYCARAPWQERSLDYNYAMDVWGQGTTVIVSS
VL: ELVLTQSPGTLSLSPGERATVSCRASQSLRRDSLAWYQQKPGHSPRLLIFAASNRVPGIPYRFSGTGSGTQFTLTIEKMEPEDFAVYYCQSYGSSPLYTFGQGTKLDIN
Consider B8, for which the binding result is “binds”.

B9: c9369 (antibody, V domains shown)
VH: QVQLVQSGAEVKKPGSSVKVSCKASGGSFSDFGISWVRQAPGQGLEWMGGIIPGFETANYGQDFQGRVTMTADESTGTAYMEVRRLRSEDTAVYYCATTGQQNDYYSSGASYKLNYYFGLDVWGQGTAVSVSS
VL: QSVLTQPPSSSGTPGQRVTISCSGSSSNIGSNTVNWYQQLPGTAPKVVISANHQRPSGVPDRFSASKSGASASLAISGLQSEDEADYYCAAWDDSRNAWVFGGGTKLTVL
Turning to B9, the binding result is on record as “binds”.

B10: c10859 (antibody, V domains shown)
VH: AGHLVESGGKLIRPGGSLSLSCVASGFTFRNAYLTWVRHIPGKGLEWVAHMKSHADGSHTDYSASVQGRCAISRDDSASTLYLHISNLRLDDTGVYYCVHLSTPDEWGHGTPVIVSS
VL: DVVLTQYPVTLSGSQGDTVALSCRASESLTSHLAWYQQRDGQRPRLLIYDTSHRPPATPPRFSASGSGTDFTLIITSLEPEDSAVYFCQQRDFWPFSFGQGTKLDIT
With B10, the binding result is listed as “binds”.

B11: c5250 (antibody, V domains shown)
VH: QVRLEQWGPGLLKPSETLSLTCAVHGESFDDYSWTWIRHTPSLGLQWIGEIRPFGEIVHKSSLSGRLSFSRDTSKRQVYLKLASVTAADAGVYFCARGPVIYQLPHFYYRGYNVWGQGTTVTVSA
VL: DLVVTQSPRSLPVTPGESATIFCRSSQSLRHDNGMHYLDWYLQKPGQSPQLLIYLTSNRASGVSDRFSGSGSGTEFTLKISRVEADDVGIYYCMQAIQDPRVFGQGTRLEIK
B11: the binding result is reported as “binds”.

B12: c5478 (antibody, V domains shown)
VH: QVRLQQWGPGLLKPSDTLSLTCAVHGESFHDYSWTWIRQTPSLGLQWIGEIRPFGEIVHKSSLSGRLSFSRDTSKRQVSLRLTSVTAADAGVYFCARGPVIYHLPDFYYRGYNVWGQGTTVTVSA
VL: DVVVTQSPRSLRVTPGESATIFCRSSQSLRHANGMHYLDWYLQKPGQSPQLLIYLTSNRASGVPDRFSGSGSGTEFTLKISRVEADDVGMYYCMQAIQDPRVFGQGTRLEIK
For the molecule B12, the binding result is listed as “binds”.

B13: c11031 (antibody, V domains shown)
V domain 1: EVRLDQSGAEMRKTGTSVRLSCTISGHTTSDFFIHWVKQAPQRGPQWMGLINVEDENVIFAEGFQGRISIGADTSRTTVFLDLTHLTVEDMALYFCTTHTLEKDTGDYVAAFDSWGHGTFLSVSS
V domain 2: QSVLTQPPSVSAVPGQKVIISCSGRTSNIGTNFVSWYQQFPGAAPKLLIYDTSHRPSGISDRFSASKSDTSATLAITALQPGDEAEYYCGAWDSGLNPAVFVFGSGTRVFVL
B13: the binding result is “binds”.

B14: c10927 (antibody, V domains shown)
V domain 1: EVRLDQSGTEMRKPGTRVRLSCKVSGHTTSDFFVHWVQQAPQRGPQWMGLINVEDENVIYADIFQGRISIVADTSKKTVFLDLTDLTFEETAIYFCATHTLQKDTGDYVAAFDSWGQGTLLYVSS
V domain 2: QSVLTQPPSVSAVPGQKVIISCSGRTSNIGTNFVSWYQQFPGAAPKLLIYDNFNRPSGISDRFSASKSDTSATLAITALQAGDEAEYYCGAWDSGLNPAVFVFGSGTRVFVL
For the molecule B14, the binding result is “binds”.

B15: c10920 (antibody, V domains shown)
V domain 1: EVRLDQSGAEMRKPGTSVRLSCTVSGHRTNDFFIHWVKQDPQRGPLWMGLINVEDENAIYAQEFQGRISIVADSSKTTVFLDLSHLKFEDTALYLCTTHTLEKETGDYVAAFDSWGQGTFLSVSS
V domain 2: QSVLTQPPSVSAVPGQKVIISCSGRTSNIGTNFVSWYQQFPGAAPKLLIYDTFHRPSGISDRFSASKSDTSATLAITALQPGDEAEYYCGSWDSGLNPAVFVFGSGTRVFVL
For the molecule B15, the binding result is “binds”.

B16: c10868 (antibody, V domains shown)
V domain 1: EVRLDQSGAEMGKTGTSVRLSCTVSGHTTSDFFIHWVKQAPQRGPQWMGLINVEDENVIFAEGFQGRISIGADTSKTTVFLDLTHLTFEDMALYFCTTHTLEKDTGDYVSAFDSWGQGTFLSVSS
V domain 2: QSVLTQPPSVSAVPGQKVIISCSGRTSNIGTNFVSWYQQFPGAAPKLLIYDTFHRPSGISDRFSASKSDTSATLAITALQPGDEAEYYCGAWDSGLNPAVFVFGSGTRVFVL
Regarding B16, the binding result is “binds”.

B17: c13160 (antibody, V domains shown)
VH: QLHLQESGPGLVKPSETLFLTCTVSGGSMSSSSYYWVWIRQPPRGRDWSRIGSIYYTGSTLTTTHPWRVESLLSVDTSKNQFSLKMNSVTAADTARYYCASSGLYAFWGQGILVPVSS
VL: DAVVTQSPLVLPVTLGQPASISCRSNQSLLFGEGNTYLNWFQQRPGQSPRRLIHNISKRDSGVPDRFSGSGSGTDFTLEISRVEAEDVGVYYCMQGIHSPPTWTFGQGTKVEIK
Take B17: the binding result is “binds”.

B18: c13230 (antibody, V domains shown)
VH: QVQLVESGGGVVQPGKSLKLSCATSGFNFSTFGIHWVRQAPGKGLEWLTVISYDGSEKFYGESVKGRFTISRDTSKKTVFLQIKSLKTEDTAVYYCAKDRAENRVSTSPLGMYYYFGMDVWGQGTTVIVSS
VL: EIMMTQSPATLSASPGEGVTLSCRASQSVSNDFAWYQQTPGQSPKLLFYDAYTRATGVPARFSVNGSGTDFTLTINSLQSEDFASYYCLQYHKWPPYSFGQGTKLGIK
B18: the binding result is on record as “binds”.

B19: c8537 (antibody, V domains shown)
VH: QVHLVESGGGVVQPGKSLRLSCTSSGFTFSNYGFHWVRQAPGKGLEWVSFISNDGSNHFYTQSLRGRFTISRDNSKGTLYLEMNSLRSEDTAIYYCARDLYSRYRGYYDDLTGENHGNFDYWGLGTLVTVSA
VL: NFLLSQSLSVSESPGKTVTISCTRSSGNIASNSVQWYQLRPGSSPTTLIYKNRQRPSGISDRFSGSVDTSSNSASLIISGLKTDDEADYYCQSFDNVNQEWVFGGGTKVTVL
Consider B19, for which the binding result was “binds”.

B20: c8540 (antibody, V domains shown)
VH: QVQLLQSGPEVKKPGASVKVSCKTSGYTFTSYAITWVRQAPGEGLEWLGWISPHSRTAKYAQKFQGRLTMTTDTSTATAYMDLRSLSPDDTAVYYCARRIYDWDIERARFDPWGQGTLVAVSS
VL: QSVLTQPPSVSADPGQRVTISCSGSSSNIGKNFVSWYQQLPGTAPKLVIYDNDRRPSGIPDRFSGSKSGTSATLGITGLQTGDEAAYYCATWDSGLNDGPVFGGGTRLTVL
As for B20, the binding result is listed as “binds”.

The values above are taken from paper PMC8196545 (Cell reports, 2021).
